Laboratory results: patent publication US20170210802A1 (INNATE PHARMA, published 2017)

B1: CD19-F5-NKp46-3 (bispecific antibody, human IgG1, kappa)
chain 1: not shown
chain 2: not shown
chain 3: DIVMTQSPATLSVTPGDRVSLSCRASQSISDYLHWYQQKSHESPRLLIKYASQSISGIPSRFSGSGSGSDFTLSINSVEPEDVGVYYCQNGHSFPLTFGAGTKLELKASTKGPSVFPLAPSSKSTSGGTAALGCLVKDYFPEPVTVSWNSGALTSGVHTFPAVLQSSGLYSLSSVVTVPSSSLGTQTYICNVNHKPSNTKVDKRVEPKSCDKTH
notes: Heterotrimer with dimeric Fc domain; also called Format 5 (F5)
B2: CD19-F6-NKp46-3 (bispecific antibody, human IgG1, kappa)
chain 1: not shown
chain 2: not shown
chain 3: DIVMTQSPATLSVTPGDRVSLSCRASQSISDYLHWYQQKSHESPRLLIKYASQSISGIPSRFSGSGSGSDFTLSINSVEPEDVGVYYCQNGHSFPLTFGAGTKLELKASTKGPSVFPLAPSSKSTSGGTAALGCLVKDYFPEPVTVSWNSGALTSGVHTFPAVLQSSGLYSLSSVVTVPSSSLGTQTYICNVNHKPSNTKVDKRVEPKSCDKTH
notes: also called Format 6 (F6)

Legend:
[1] = target: T1, human FcRn (recombinant, Example 10) (human, UniProt P55899 24-297; P61769 21-119, limits assumed); assay: SPR, recombinant FcRn immobilised on CM5, SCK/Two state reaction
T1 construct: also called recombinant FcRn proteins

[2] = target: T2, Human NKp46 recombinant proteins (human, UniProt O76036 22-258, limits assumed); assay: SPR (Biacore T100), antibody captured on Protein-A chip, recombinant human NKp46 injected (6.25-400 nM), 1:1 kinetic model
T2 construct: also called recombinant human NKp46
Procedure: SPR measurements were performed on a Biacore T100 apparatus (Biacore GE Healthcare) at 25° C. In all Biacore experiments HBS-EP+(Biacore GE Healthcare) and NaOH 10 mM served as running buffer and regeneration buffer respectively. Sensorgrams were analyzed with Biacore T100 Evaluation software. Protein-A was purchase from (GE Healthcare). Human NKp46 recombinant proteins were cloned, produced and purified at Innate Pharma.
Protein-A proteins were immobilized covalently to carboxyl groups in the dextran layer on a Sensor Chip CM5. The chip surface was activated with EDC/NHS (N-ethyl-N′-(3-dimethylaminopropyl) carbodiimidehydrochloride and N-hydroxysuccinimide (Biacore GE Healthcare)). Protein-A was diluted to 10 μg/ml in coupling buffer (10 mM acetate, pH 5.6) and injected until the appropriate immobilization level was reached (i.e. 2000 RU). Deactivation of the remaining activated groups was performed using 100 mM ethanolamine pH 8 (Biacore GE Healthcare).
Monovalent affinity study was done following a regular Capture-Kinetic protocol recommended by the manufacturer (Biacore GE Healthcare kinetic wizard). Seven serial dilutions of human NKp46 recombinant proteins, ranging from 6.25 to 400 nM were sequentially injected over the captured Bi-Specific antibodies and allowed to dissociate for 10 min before regeneration. The entire sensorgram sets were fitted using the 1:1 kinetic binding model.

T2 sequence (O76036 22-258 limits assumed): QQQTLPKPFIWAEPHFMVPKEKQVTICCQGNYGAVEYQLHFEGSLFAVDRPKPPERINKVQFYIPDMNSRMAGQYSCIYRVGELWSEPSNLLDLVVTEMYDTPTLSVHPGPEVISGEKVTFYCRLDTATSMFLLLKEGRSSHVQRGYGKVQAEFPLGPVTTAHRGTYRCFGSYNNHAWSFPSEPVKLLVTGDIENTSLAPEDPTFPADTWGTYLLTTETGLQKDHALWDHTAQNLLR
T1 sequence (P55899 24-297 limits assumed, form in doubt, chain 1 of 2): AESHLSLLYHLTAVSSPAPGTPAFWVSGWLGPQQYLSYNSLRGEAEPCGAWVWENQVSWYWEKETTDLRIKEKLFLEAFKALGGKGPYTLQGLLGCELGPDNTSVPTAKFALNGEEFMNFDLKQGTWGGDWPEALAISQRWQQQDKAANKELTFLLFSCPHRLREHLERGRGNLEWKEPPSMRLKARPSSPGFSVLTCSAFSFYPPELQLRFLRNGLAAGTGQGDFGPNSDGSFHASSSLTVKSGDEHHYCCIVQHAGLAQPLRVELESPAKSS
T1 sequence (P61769 21-119 limits assumed, form in doubt, chain 2 of 2): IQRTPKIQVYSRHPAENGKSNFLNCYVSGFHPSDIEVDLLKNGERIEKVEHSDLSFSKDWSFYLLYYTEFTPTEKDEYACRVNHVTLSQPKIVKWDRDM

Binder | Kd [1] | Kd [2] | koff [2] | kon [2]
B1 | 2.6 nM | 67 nM | 0.0051 s⁻¹ | 75600 M⁻¹ s⁻¹
B2 | 6 nM | 63 nM | 0.00503 s⁻¹ | 79300 M⁻¹ s⁻¹
